Measured values: patent US20230257458A1 (SUNSHINE LAKE PHARMA, published 2023)

T1: IL-11 protein (UniProt P20809 22-199, limits assumed)
T1 construct: also called IL-11 antigen
T1 sequence (looked up): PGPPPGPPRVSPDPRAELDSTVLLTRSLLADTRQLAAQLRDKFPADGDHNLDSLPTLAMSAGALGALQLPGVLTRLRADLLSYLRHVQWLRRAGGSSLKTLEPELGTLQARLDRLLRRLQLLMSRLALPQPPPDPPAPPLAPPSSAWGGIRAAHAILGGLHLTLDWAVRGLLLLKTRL


Molecular target: T1, IL-11 protein
Assay: SPR (Biacore), antibody captured, 400 nM IL-11 as analyte
Experimental: The measure method included the steps of capturing the humanized antibody at a flow rate of 10 ul/min. […] Finally the chip was regenerated with 10 mM glycine buffer.

Binder | Kd | koff | kon
VH2 + VL3-scFv (scFv, V domains shown, Humanized 5-20E11-5F2; CHO supernatant; Called scFv, but heavy and light vectors were co-transfected) VH: QVQLVQSGAEVKKPGASVKVSCKASDYTFTNYWLGWVRQAPGQGLEWIGHIYPGGGYTNYNEKFKGRVTMTADTSTSTVYMELSSLRSEDTAVYFCARVRSGNDALDFWGQGTLVTVSS VL: EIVLTQSPATLSLSPGERATLSCRASESVDEYGISFMNWFQQKPGQAPRLLIYSASNQGSGIPARFSGSGSGTDFTLTISSLEPEDFAVYFCQQSKEVPWTFGGGTKLEIK | 11.9 nM | 0.000541 s⁻¹ | 45600 M⁻¹ s⁻¹
VH2 + VL1-scFv (scFv, V domains shown, Humanized 5-20E11-5F2; CHO supernatant; Called scFv, but heavy and light vectors were co-transfected) VH: QVQLVQSGAEVKKPGASVKVSCKASDYTFTNYWLGWVRQAPGQGLEWIGHIYPGGGYTNYNEKFKGRVTMTADTSTSTVYMELSSLRSEDTAVYFCARVRSGNDALDFWGQGTLVTVSS VL: EIVLTQSPATLSLSPGERATLSCRASESVDEYGISFMNWYQQKPGQAPRLLIYSASNQGSGIPARFSGSGSGTDFTLTISSLEPEDFAVYYCQQSKEVPWTFGGGTKLEIK | 16.7 nM | 0.00089 s⁻¹ | 53400 M⁻¹ s⁻¹
VH1 + VL3-scFv (scFv, V domains shown, Humanized 5-20E11-5F2; CHO supernatant; Called scFv, but heavy and light vectors were co-transfected) VH: QVQLVQSGAEVKKPGASVKVSCKASDYTFTNYWLGWVRQAPGQGLEWMGHIYPGGGYTNYNEKFKGRVTMTRDTSTSTVYMELSSLRSEDTAVYYCARVRSGNDALDFWGQGTLVTVSS VL: EIVLTQSPATLSLSPGERATLSCRASESVDEYGISFMNWFQQKPGQAPRLLIYSASNQGSGIPARFSGSGSGTDFTLTISSLEPEDFAVYFCQQSKEVPWTFGGGTKLEIK | 12.3 nM | 0.000436 s⁻¹ | 35500 M⁻¹ s⁻¹
VH1 + VL4-scFv (scFv, V domains shown, Humanized 5-20E11-5F2; CHO supernatant; Called scFv, but heavy and light vectors were co-transfected) VH: QVQLVQSGAEVKKPGASVKVSCKASDYTFTNYWLGWVRQAPGQGLEWMGHIYPGGGYTNYNEKFKGRVTMTRDTSTSTVYMELSSLRSEDTAVYYCARVRSGNDALDFWGQGTLVTVSS VL: EIVLTQSPATLSLSPGERATLSCRASESVDEYGISFMNWFQQKPGQAPRLLIYSASNQGSGIPARFSGSGSGTDFTLTISSLEPEDFAMYFCQQSKEVPWTFGGGTKLEIK | 11.7 nM | 0.000387 s⁻¹ | 33100 M⁻¹ s⁻¹
VH1 + VL1-scFv (scFv, V domains shown, Humanized 5-20E11-5F2; CHO supernatant; Called scFv, but heavy and light vectors were co-transfected) VH: QVQLVQSGAEVKKPGASVKVSCKASDYTFTNYWLGWVRQAPGQGLEWMGHIYPGGGYTNYNEKFKGRVTMTRDTSTSTVYMELSSLRSEDTAVYYCARVRSGNDALDFWGQGTLVTVSS VL: EIVLTQSPATLSLSPGERATLSCRASESVDEYGISFMNWYQQKPGQAPRLLIYSASNQGSGIPARFSGSGSGTDFTLTISSLEPEDFAVYYCQQSKEVPWTFGGGTKLEIK | 21.6 nM | 0.000758 s⁻¹ | 35100 M⁻¹ s⁻¹
VH1 + VL2-scFv (scFv, V domains shown, Humanized 5-20E11-5F2; CHO supernatant; Called scFv, but heavy and light vectors were co-transfected) VH: QVQLVQSGAEVKKPGASVKVSCKASDYTFTNYWLGWVRQAPGQGLEWMGHIYPGGGYTNYNEKFKGRVTMTRDTSTSTVYMELSSLRSEDTAVYYCARVRSGNDALDFWGQGTLVTVSS VL: EIVLTQSPATLSLSPGERATLSCRASESVDEYGISFMNWYQQKPGQAPRLLIYSASNQGSGIPARFSGSGSGTDFTLTISSLEPEDFAVYFCQQSKEVPWTFGGGTKLEIK | 11.2 nM | 0.000461 s⁻¹ | 41300 M⁻¹ s⁻¹

Other lines, results leading:

Kd | koff | kon | Binder
13.3 nM | 0.000556 s⁻¹ | 41800 M⁻¹ s⁻¹ | VH3 + VL4-scFv (scFv, V domains shown, Humanized 5-20E11-5F2; CHO supernatant; Called scFv, but heavy and light vectors were co-transfected) VH: QVQLVQSGAEVKKPGASVKVSCKASDYTFTNYWLGWVRQAPGQGLEWIGHIYPGGGYTNYNEKFKGRATLTADTSTSTVYMELSSLRSEDTAVYFCARVRSGNDALDFWGQGTLVTVSS VL: EIVLTQSPATLSLSPGERATLSCRASESVDEYGISFMNWFQQKPGQAPRLLIYSASNQGSGIPARFSGSGSGTDFTLTISSLEPEDFAMYFCQQSKEVPWTFGGGTKLEIK
10.8 nM | 0.000528 s⁻¹ | 48800 M⁻¹ s⁻¹ | VH2 + VL4-scFv (scFv, V domains shown, Humanized 5-20E11-5F2; CHO supernatant; Called scFv, but heavy and light vectors were co-transfected) VH: QVQLVQSGAEVKKPGASVKVSCKASDYTFTNYWLGWVRQAPGQGLEWIGHIYPGGGYTNYNEKFKGRVTMTADTSTSTVYMELSSLRSEDTAVYFCARVRSGNDALDFWGQGTLVTVSS VL: EIVLTQSPATLSLSPGERATLSCRASESVDEYGISFMNWFQQKPGQAPRLLIYSASNQGSGIPARFSGSGSGTDFTLTISSLEPEDFAMYFCQQSKEVPWTFGGGTKLEIK
22.5 nM | 0.001 s⁻¹ | 44500 M⁻¹ s⁻¹ | VH3 + VL1-scFv (scFv, V domains shown, Humanized 5-20E11-5F2; CHO supernatant; Called scFv, but heavy and light vectors were co-transfected) VH: QVQLVQSGAEVKKPGASVKVSCKASDYTFTNYWLGWVRQAPGQGLEWIGHIYPGGGYTNYNEKFKGRATLTADTSTSTVYMELSSLRSEDTAVYFCARVRSGNDALDFWGQGTLVTVSS VL: EIVLTQSPATLSLSPGERATLSCRASESVDEYGISFMNWYQQKPGQAPRLLIYSASNQGSGIPARFSGSGSGTDFTLTISSLEPEDFAVYYCQQSKEVPWTFGGGTKLEIK
14.6 nM | 0.00068 s⁻¹ | 46500 M⁻¹ s⁻¹ | VH3 + VL2-scFv (scFv, V domains shown, Humanized 5-20E11-5F2; CHO supernatant; Called scFv, but heavy and light vectors were co-transfected) VH: QVQLVQSGAEVKKPGASVKVSCKASDYTFTNYWLGWVRQAPGQGLEWIGHIYPGGGYTNYNEKFKGRATLTADTSTSTVYMELSSLRSEDTAVYFCARVRSGNDALDFWGQGTLVTVSS VL: EIVLTQSPATLSLSPGERATLSCRASESVDEYGISFMNWYQQKPGQAPRLLIYSASNQGSGIPARFSGSGSGTDFTLTISSLEPEDFAVYFCQQSKEVPWTFGGGTKLEIK
17.8 nM | 0.000812 s⁻¹ | 45700 M⁻¹ s⁻¹ | VH2 + VL2-scFv (scFv, V domains shown, Humanized 5-20E11-5F2; CHO supernatant; Called scFv, but heavy and light vectors were co-transfected) VH: QVQLVQSGAEVKKPGASVKVSCKASDYTFTNYWLGWVRQAPGQGLEWIGHIYPGGGYTNYNEKFKGRVTMTADTSTSTVYMELSSLRSEDTAVYFCARVRSGNDALDFWGQGTLVTVSS VL: EIVLTQSPATLSLSPGERATLSCRASESVDEYGISFMNWYQQKPGQAPRLLIYSASNQGSGIPARFSGSGSGTDFTLTISSLEPEDFAVYFCQQSKEVPWTFGGGTKLEIK
11.1 nM | 0.000614 s⁻¹ | 55200 M⁻¹ s⁻¹ | VH4 + VL2-scFv (scFv, V domains shown, Humanized 5-20E11-5F2; CHO supernatant; Called scFv, but heavy and light vectors were co-transfected) VH: QVQLVQSGAEVKKPGASVKVSCKASDYTFTNYWLGWVRQAPGHGLEWIGHIYPGGGYTNYNEKFKGRATLTADTSTSTVYMELSSLRSEDTAVYFCARVRSGNDALDFWGQGTLVTVSS VL: EIVLTQSPATLSLSPGERATLSCRASESVDEYGISFMNWYQQKPGQAPRLLIYSASNQGSGIPARFSGSGSGTDFTLTISSLEPEDFAVYFCQQSKEVPWTFGGGTKLEIK
17.2 nM | 0.00084 s⁻¹ | 48900 M⁻¹ s⁻¹ | VH4 + VL1-scFv (scFv, V domains shown, Humanized 5-20E11-5F2; CHO supernatant; Called scFv, but heavy and light vectors were co-transfected) VH: QVQLVQSGAEVKKPGASVKVSCKASDYTFTNYWLGWVRQAPGHGLEWIGHIYPGGGYTNYNEKFKGRATLTADTSTSTVYMELSSLRSEDTAVYFCARVRSGNDALDFWGQGTLVTVSS VL: EIVLTQSPATLSLSPGERATLSCRASESVDEYGISFMNWYQQKPGQAPRLLIYSASNQGSGIPARFSGSGSGTDFTLTISSLEPEDFAVYYCQQSKEVPWTFGGGTKLEIK
9.76 nM | 0.000464 s⁻¹ | 47600 M⁻¹ s⁻¹ | VH3 + VL3-scFv (scFv, V domains shown, Humanized 5-20E11-5F2; CHO supernatant; Called scFv, but heavy and light vectors were co-transfected) VH: QVQLVQSGAEVKKPGASVKVSCKASDYTFTNYWLGWVRQAPGQGLEWIGHIYPGGGYTNYNEKFKGRATLTADTSTSTVYMELSSLRSEDTAVYFCARVRSGNDALDFWGQGTLVTVSS VL: EIVLTQSPATLSLSPGERATLSCRASESVDEYGISFMNWFQQKPGQAPRLLIYSASNQGSGIPARFSGSGSGTDFTLTISSLEPEDFAVYFCQQSKEVPWTFGGGTKLEIK
